The values that follow are results of earlier work, collected in PMC10453832.

The target in the data set is F-actin (Oryctolagus cuniculus) (UniProt P68135).

“β-III-spectrin ABD (from UniProt O15020)”: the Kd (usually the equilibrium constant for the complex coming apart) is 0.075 µM.
